In publication PMC6566107, “Molecular Analysis of Protein-Protein Interactions in the Ethylene Pathway in the Different Ethylene Receptor Subfamilies” (Frontiers in Plant Science, 2019):

Key:
[1] = target: T1, Arabidopsis thaliana ethylene receptor ETR2 (AtETR2), full-length, type-II subfamily (Arabidopsis thaliana, UniProt Q0WPQ2 1-773, Alexa Fluor 488 succinimidyl-ester label where used as the labeled partner in MST); test: MST; 40 nM Alexa Fluor 488-labeled receptor (AtETR1 or AtETR2); unlabeled AtETR1 or AtETR2 (4 µM to 0.49 nM) or ETR1-TM C4SC6S (16 µM to 0.98 nM) titrated; 0.0075% (w/v) FosCholine-16; 60% MST power; 1:1 model; conditions: both partners purified
T1 construct: ETR2, Arabidopsis thaliana, UniProt Q0WPQ2, full-length, codon optimized cDNA according to NCBI NM_113216.3; The thrombin site of pGEX-4T-1 was changed to a TEV site (ENLYFQG); No cleavage is described; The purified protein runs at an apparent 120 kDa, so GST is probably still attached; The same construct was used with and without the Alexa Fluor 488 label; source: E. coli C43 (DE3), solubilised …
T1 sequence (looked up): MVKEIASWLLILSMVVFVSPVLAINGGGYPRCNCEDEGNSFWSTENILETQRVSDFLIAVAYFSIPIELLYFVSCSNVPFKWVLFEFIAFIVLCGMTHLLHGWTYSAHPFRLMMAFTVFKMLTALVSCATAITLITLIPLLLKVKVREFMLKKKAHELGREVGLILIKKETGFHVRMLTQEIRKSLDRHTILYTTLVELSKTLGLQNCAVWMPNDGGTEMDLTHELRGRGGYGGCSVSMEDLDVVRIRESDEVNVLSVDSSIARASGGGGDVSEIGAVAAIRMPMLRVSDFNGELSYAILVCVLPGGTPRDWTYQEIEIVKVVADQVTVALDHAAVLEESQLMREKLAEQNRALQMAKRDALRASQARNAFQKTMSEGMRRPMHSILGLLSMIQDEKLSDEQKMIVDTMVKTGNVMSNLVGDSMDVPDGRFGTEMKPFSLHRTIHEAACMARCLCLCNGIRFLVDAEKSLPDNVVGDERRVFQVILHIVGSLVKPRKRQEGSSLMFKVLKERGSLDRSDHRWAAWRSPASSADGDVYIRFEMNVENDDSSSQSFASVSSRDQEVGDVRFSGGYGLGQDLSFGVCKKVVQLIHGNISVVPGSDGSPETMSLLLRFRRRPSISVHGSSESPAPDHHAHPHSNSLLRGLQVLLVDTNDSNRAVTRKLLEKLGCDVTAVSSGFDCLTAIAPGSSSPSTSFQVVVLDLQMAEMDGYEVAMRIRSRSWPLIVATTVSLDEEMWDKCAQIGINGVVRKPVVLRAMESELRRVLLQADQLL

[2] = target: T2, Arabidopsis thaliana ethylene receptor ETR1 (AtETR1), full-length, type-I subfamily (Arabidopsis thaliana, UniProt P49333 1-738, Alexa Fluor 488 succinimidyl-ester label where used as the labeled partner in MST); test: as above; conditions: both partners purified
T2 construct: ETR1, Arabidopsis thaliana, full-length receptor; source: recombinant, expressed and purified as described in Milić et al., 2018, in FosCholine-16
T2 sequence (looked up): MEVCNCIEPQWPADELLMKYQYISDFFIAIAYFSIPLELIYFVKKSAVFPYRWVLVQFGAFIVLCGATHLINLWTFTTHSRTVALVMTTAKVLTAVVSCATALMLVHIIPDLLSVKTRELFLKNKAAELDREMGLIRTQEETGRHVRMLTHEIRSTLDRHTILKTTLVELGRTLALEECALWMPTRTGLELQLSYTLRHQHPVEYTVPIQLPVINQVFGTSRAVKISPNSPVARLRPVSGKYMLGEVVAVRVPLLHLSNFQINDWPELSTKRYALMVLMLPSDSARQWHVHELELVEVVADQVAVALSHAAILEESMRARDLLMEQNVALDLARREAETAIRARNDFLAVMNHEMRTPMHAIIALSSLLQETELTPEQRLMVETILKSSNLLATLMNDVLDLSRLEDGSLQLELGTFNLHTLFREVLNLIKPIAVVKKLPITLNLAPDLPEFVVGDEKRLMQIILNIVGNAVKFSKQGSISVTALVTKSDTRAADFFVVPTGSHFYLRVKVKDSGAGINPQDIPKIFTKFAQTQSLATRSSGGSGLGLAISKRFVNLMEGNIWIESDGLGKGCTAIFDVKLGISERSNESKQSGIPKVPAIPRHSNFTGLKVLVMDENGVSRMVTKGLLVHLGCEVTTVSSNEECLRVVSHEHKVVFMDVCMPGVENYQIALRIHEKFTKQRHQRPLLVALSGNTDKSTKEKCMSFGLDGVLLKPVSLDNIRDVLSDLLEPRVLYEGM

binding result [1]: binds
binding result [2]: binds
B1: Isolated transmembrane domain of AtETR1 (aa 1-157) with C4S and C6S (domain or fragment, Arabidopsis thaliana, UniProt P49333 1-157, looked up)
chain: MEVSNSIEPQWPADELLMKYQYISDFFIAIAYFSIPLELIYFVKKSAVFPYRWVLVQFGAFIVLCGATHLINLWTFTTHSRTVALVMTTAKVLTAVVSCATALMLVHIIPDLLSVKTRELFLKNKAAELDREMGLIRTQEETGRHVRMLTHEIRSTL
notes: ETR1, Arabidopsis thaliana, transmembrane domain, residues 1-157, cysteines 4 and 6 changed to serine; also called ETR1-TM^C4SC6S; AtETR1-TM^C4SC6S
